According to patent US20220281998A1 (AZUSAPHARMA SCIENCES, published 2022):
Positions count from the first letter of the chain named.

Experiments:
[1] = target: T1, human CD3E/CD3D heterodimer recombinant protein (manufactured by ACROBiosystems) (human, UniProt P07766 23-126; P04234 22-105); experiment: sandwich ELISA: immobilised human CD3E/CD3D heterodimer, BsAb, biotinylated HER2
T1 construct: Bought reagent, immobilised on ELISA plates

[2] = target: recombinant biotinylated human EGFR (manufactured by ACROBiosystems) (human, UniProt P00533 25-645, biotinylated (site not stated)); experiment: sandwich ELISA: immobilised human CD3E/CD3D heterodimer, BsAb, detection with biotinylated human EGFR
[3] = target: human PSMA on 22Rv1 cells (PSMA-positive human prostate cancer cell line) (human, UniProt Q04609 1-750); experiment: cell-based or functional assay
human PSMA on 22Rv1 cells (PSMA-positive human prostate cancer cell line), sequence (Q04609 whole entry): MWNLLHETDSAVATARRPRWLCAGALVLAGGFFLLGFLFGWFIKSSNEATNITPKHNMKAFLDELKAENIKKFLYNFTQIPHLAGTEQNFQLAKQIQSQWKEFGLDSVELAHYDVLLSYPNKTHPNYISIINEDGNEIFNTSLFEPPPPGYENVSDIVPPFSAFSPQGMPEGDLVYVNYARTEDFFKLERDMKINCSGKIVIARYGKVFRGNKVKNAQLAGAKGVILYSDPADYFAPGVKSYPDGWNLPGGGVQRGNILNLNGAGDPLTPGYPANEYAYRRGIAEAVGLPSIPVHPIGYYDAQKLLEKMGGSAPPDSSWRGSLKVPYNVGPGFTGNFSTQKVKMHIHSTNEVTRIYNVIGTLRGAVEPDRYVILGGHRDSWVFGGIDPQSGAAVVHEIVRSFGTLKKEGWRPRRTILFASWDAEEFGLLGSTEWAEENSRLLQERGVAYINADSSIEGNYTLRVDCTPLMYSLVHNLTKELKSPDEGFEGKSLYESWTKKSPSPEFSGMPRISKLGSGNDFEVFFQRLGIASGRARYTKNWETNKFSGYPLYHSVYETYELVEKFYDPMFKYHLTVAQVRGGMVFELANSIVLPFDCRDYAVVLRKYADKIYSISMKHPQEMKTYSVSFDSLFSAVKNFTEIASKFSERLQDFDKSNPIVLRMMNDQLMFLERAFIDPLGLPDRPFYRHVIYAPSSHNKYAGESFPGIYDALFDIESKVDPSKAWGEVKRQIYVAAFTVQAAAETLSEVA

[4] = target: T2, human EpCAM on HCT116 cells (EpCAM-positive human colon cancer cell line) (human, UniProt P16422 24-314); experiment: cell-based or functional assay
T2 sequence (looked up): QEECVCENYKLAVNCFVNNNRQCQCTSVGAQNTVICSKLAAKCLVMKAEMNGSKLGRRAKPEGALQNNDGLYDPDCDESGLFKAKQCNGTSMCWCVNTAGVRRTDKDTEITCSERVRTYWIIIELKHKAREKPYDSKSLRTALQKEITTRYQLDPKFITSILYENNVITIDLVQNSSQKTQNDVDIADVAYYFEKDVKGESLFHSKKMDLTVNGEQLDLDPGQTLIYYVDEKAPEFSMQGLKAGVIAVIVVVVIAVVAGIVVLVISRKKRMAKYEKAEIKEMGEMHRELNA

[5] = target: T1, human CD3E/CD3D heterodimer recombinant …; experiment: sandwich ELISA: immobilised human CD3E/CD3D heterodimer, BsAb, biotinylated EpCAM
[6] = target: human EGFR on human cancer cell lines (HCT116, A-431, NCI-H1975, HT-29, RKO) (human, UniProt P00533 25-1210); experiment: cell-based or functional assay
[7] = target: T1, human CD3E/CD3D heterodimer recombinant …; experiment: sandwich ELISA: immobilised human CD3E/CD3D heterodimer, BsAb, biotinylated human EGFR

T1 sequence (P07766 23-126 limits assumed, chain 1 of 2): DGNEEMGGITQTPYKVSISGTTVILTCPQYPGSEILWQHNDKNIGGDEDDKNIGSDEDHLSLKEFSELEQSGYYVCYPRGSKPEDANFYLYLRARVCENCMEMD
T1 sequence (P04234 22-105 limits assumed, chain 2 of 2): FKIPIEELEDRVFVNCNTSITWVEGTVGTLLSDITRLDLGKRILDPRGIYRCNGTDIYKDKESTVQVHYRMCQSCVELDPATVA

B1: LH36 diabody-type BsAb (HER2×CD3 diabody-type BsAb derived from CUM-36-1H strain) (bispecific antibody)
chain 1: ATLTPDIQMTQSPSSLSASVGDRVTITCKASQDVSIGVAWYQQKPGKAPKLLIYSASYRYTGVPSRFSGSGSGTDFTLTISSLQPEDFATYYCQQYYIYPYTFGQGTKVEIKAAGGGGSEVQLVESGGGLVQPGGSLRLSCAASGYSFTGYTMNWVRQAPGKGLEWVALINPYKGVSTYNQKFKDRFTISVDKSKNTAYLQMNSLRAEDTAVYYCARSGYYGDSDWYFDVWGQGTLVTVSSAAAEQKLISEEDLNLGGGMRGSHHHHHH
chain 2: ATDIQMTQSPSSLSASVGDRVTITCRASQDIRNYLNWYQQKPGKAPKLLIYYTSRLESGVPSRFSGSGSGTDYTLTISSLQPEDFATYYCQQGNTLPWTFGQGTKVEIKAAGGGGSEVQLVESGGGLVQPGGSLRLSCAASGFTFTDYTMDWVRQAPGKGLEWVADVNPNSGGSIYNQRFKGRFTLSVDRSKNTLYLQMNSLRAEDTAVYYCARNLGPSFYFDYWGQGTLVTVSSAAAEQKLISEEDLNLGGGMRGSHHHHHH
notes: Secreted by Bifidobacterium longum 105-A carrying pLH36-1; purified through the His tag; also called LH36 polypeptide 1 + LH36 polypeptide 2 (SP50-L2)
Question: Does B1 bind [1]?
Answer: binds

Question: Does B1 bind [2]?
Answer: no binding

B2: LH36 diabody-type BsAb (HER2×CD3 diabody-type BsAb derived from CUM-36-2H strain) (bispecific antibody)
chain 1: B1 chain 1
chain 2: B1 chain 2 with T2D
notes: Secreted by Bifidobacterium longum 105-A carrying pLH36-2; purified through the His tag; also called LH36 polypeptide 1 + LH36 polypeptide 2 (SP52-L2)
Question: Does B2 bind [1]?
Answer: binds

B3: LH-PUM-H diabody-type BsAb (PSMA×CD3 diabody-type BsAb derived from LH-PUM-H strain) (bispecific antibody)
chain 1: ATDIQMTQSPSSLSASVGDRVTITCRASQDIRNYLNWYQQKPGKAPKLLIYYTSRLESGVPSRFSGSGSGTDYTLTISSLQPEDFATYYCQQGNTLPWTFGQGTKVEIKAAGGGGSQVQLVESGGGLVKPGESLRLSCAASGFTFSDYYMYWVRQAPGKGLEWVAIISDGGYYTYYSDIIKGRFTISRDNAKNSLYLQMNSLKAEDTAVYYCARGFPLLRHGAMDYWGQGTLVTVSSAAAEQKLISEEDLNLGGGMRGSHHHHHH
chain 2: ADDIQMTQSPSSLSASVGDRVTITCKASQNVDTNVAWYQQKPGQAPKSLIYSASYRYSDVPSRFSGSASGTDFTLTISSVQSEDFATYYCQQYDSYPYTFGGGTKLEIKAAGGGGSEVQLVESGGGLVQPGGSLRLSCAASGYSFTGYTMNWVRQAPGKGLEWVALINPYKGVSTYNQKFKDRFTISVDKSKNTAYLQMNSLRAEDTAVYYCARSGYYGDSDWYFDVWGQGTLVTVSSAAAEQKLISEEDLNLGGGMRGSHHHHHH
Question: With B3 as the binder, how does the “EC50, cytotoxic activity on 22Rv1 cells with T-LAKs” value [3] read?
Answer: 0.155 nM

B4: EUM-H diabody-type BsAb (EpCAM×CD3 diabody-type BsAb derived from EUM-H strain) (bispecific antibody)
chain 1: ATDIQMTQSPSSLSASVGDRVTITCRASQDIRNYLNWYQQKPGKAPKLLIYYTSRLESGVPSRFSGSGSGTDYTLTISSLQPEDFATYYCQQGNTLPWTFGQGTKVEIKAAGGGGSEVQLLEQSGAELVRPGTSVKISCKASGYAFTNYWLGWVKQRPGHGLEWIGDIFPGSGNIHYNEKFKGKATLTADKSSSTAYMQLSSLTFEDSAVYFCARLRNWDEPMDYWGQGTTVTVSSAAAEQKLISEEDLNLGGGMRGSHHHHHH
chain 2: ADELVMTQSPSSLTVTAGEKVTMSCKSSQSLLNSGNQKNYLTWYQQKPGQPPKLLIYWASTRESGVPDRFTGSGSGTDFTLTISSVQAEDLAVYYCQNDYSYPLTFGAGTKLEIKAAGGGGSEVQLVESGGGLVQPGGSLRLSCAASGYSFTGYTMNWVRQAPGKGLEWVALINPYKGVSTYNQKFKDRFTISVDKSKNTAYLQMNSLRAEDTAVYYCARSGYYGDSDWYFDVWGQGTLVTVSSAAAEQKLISEEDLNLGGGMRGSHHHHHH
notes: Secreted by Bifidobacterium longum 105-A carrying pEUM-H; purified through the His tag; also called EUM-H polypeptide 1 + EUM-H polypeptide 2
Question: How did the “EC50, cytotoxic activity on HCT116 cells with T-LAKs” value [4] turn out when B4 was run?
Answer: 0.0173 nM

Question: Does B4 bind [5]?
Answer: binds

B5: LH9 diabody-type BsAb (EGFR×CD3 diabody-type BsAb derived from FLM-9H strain) (bispecific antibody)
chain 1: ATLTPDIVLTQSPATLSLSPGERATLSCRASQSVSYMNWYQQKPGKAPKRWIYDTSKVASGVPARFSGSGSGTDYSLTINSLEAEDAATYYCQQWSSNPLTFGGGTKVEIKAAGGGGSQVQLQESGPGLVKPSQTLSLTCTVSGGSISSGDYYWSWIRQPPGKGLEWIGYIYYSGSTDYNPSLKSRVTMSVDTSKNQFSLKVNSVTAADTAVYYCARVSIFGVGTFDYWGQGTLVTVSSAAAAEQKLISEEDLNLGGGMRGSHHHHHH
chain 2: ATLTPDIVMTQSPATLSLSPGERATLSCRASQSVSSYLAWYQQKPGQAPRLLIYDASNRATGIPARFSGSGSGTDFTLTISSLEPEDFAVYYCHQYGSTPLTFGGGTKAEIKAAGGGGSDVQLVQSGAEVKKPGASVKVSCKASGYTFTRYTMHWVRQAPGQGLEWIGYINPSRGYTNYADSVKGRFTITTDKSTSTAYMELSSLRSEDTATYYCARYYDDHYCLDYWGQGTTVTVSSAAAEQKLISEEDLNLGGGMRGSHHHHHH
Question: B5 was tested. Which “EC50: concentration that reduced the viability of HCT116 cells to 50% (T-LAK:HCT116 5:1, 24 h)” value [6] did it give?
Answer: 0.0022 nM

B6: LH22 diabody-type BsAb (EGFR×CD3 diabody-type BsAb derived from FOM-22H strain) (bispecific antibody)
chain 1: ATLTPDIQMTQSPSSLSASVGDRVTITCSASSSVSYMNWYQQTPGKAPKRWIYDTSKLASGVPSRFSGSGSGTDYTFTISSLQPEDIATYYCQQWSSNPFTFGQGTKLQITAAGGGGSQVQLQESGPGLVKPSQTLSLTCTVSGGSISSGDYYWSWIRQPPGKGLEWIGYIYYSGSTDYNPSLKSRVTMSVDTSKNQFSLKVNSVTAADTAVYYCARVSIFGVGTFDYWGQGTLVTVSSAAAEQKLISEEDLNLGGGMRGSHHHHHH
chain 2: ATLTPDIVMTQSPATLSLSPGERATLSCRASQSVSSYLAWYQQKPGQAPRLLIYDASNRATGIPARFSGSGSGTDFTLTISSLEPEDFAVYYCHQYGSTPLTFGGGTKAEIKAAGGGGSQVQLVQSGGGVVQPGRSLRLSCKASGYTFTRYTMHWVRQAPGKGLEWIGYINPSRGYTNYNQKVKDRFTISRDNSKNTAFLQMDSLRPEDTGVYFCARYYDDHYSLDYWGQGTPVTVSSAAAEQKLISEEDLNLGGGMRGSHHHHHH
Question: How did the “EC50: concentration that reduced the viability of HCT116 cells to 50% (T-LAK:HCT116 5:1, 24 h)” value [6] turn out when B6 was run?
Answer: 0.00025 nM

B7: LH31 diabody-type BsAb (EGFR×CD3 diabody-type BsAb derived from DUM-126H strain) (bispecific antibody)
chain 1: ATDIQMTQSPSSLSASVGDRVTITCRASQDIRNYLNWYQQKPGKAPKLLIYYTSRLESGVPSRFSGSGSGTDYTLTISSLQPEDFATYYCQQGNTLPWTFGQGTKVEIKAAGGGGSEVQLVESGGGLVQPGGSLRLSCAASGFTLSGDWIHWVRQAPGKGLEWLGEISAAGGYTDYADSVKGRFTISADTSKNTAYLQMNSLRAEDTAVYYCARESRVSFEAAMDYWGQGTLVTVSSAAAAEQKLISEEDLNLGGGMRGSHHHHHH
chain 2: ATDIQMTQSPSSLSASVGDRVTITCRASQDLATDVAWYQQKPGKAPKLLIYSASFLYSGVPSRFSGSGSGTDFTLTISSLQPEDFATYYCQQSEPEPYTFGQGTKVEIKAAGGGGSEVQLVESGGGLVQPGGSLRLSCAASGYSFTGYTMNWVRQAPGKGLEWVALINPYKGVSTYNQKFKDRFTISVDKSKNTAYLQMNSLRAEDTAVYYCARSGYYGDSDWYFDVWGQGTLVTVSSAAAEQKLISEEDLNLGGGMRGSHHHHHH
notes: Secreted by Bifidobacterium longum 105-A carrying plasmid p126; purified on protein L resin; also called LH31 polypeptide 1 + LH31 polypeptide 2 with SP50-L2
Question: Which “EC50, viability of HCT116 cells with T-LAKs” value [6] does the source give for B7 here?
Answer: 0.0084 nM

Question: Does B7 bind [7]?
Answer: binds

B8: HL-PUM-H diabody-type BsAb (PSMA×CD3 diabody-type BsAb derived from HL-PUM-H strain) (bispecific antibody)
chain 1: ATEVQLVESGGGLVQPGGSLRLSCAASGYSFTGYTMNWVRQAPGKGLEWVALINPYKGVSTYNQKFKDRFTISVDKSKNTAYLQMNSLRAEDTAVYYCARSGYYGDSDWYFDVWGQGTLVTVSSAAGGGGSDIQMTQSPSSLSASVGDRVTITCKASQNVDTNVAWYQQKPGQAPKSLIYSASYRYSDVPSRFSGSASGTDFTLTISSVQSEDFATYYCQQYDSYPYTFGGGTKLEIKAAAEQKLISEEDLNLGGGMRGSHHHHHH
chain 2: ADQVQLVESGGGLVKPGESLRLSCAASGFTFSDYYMYWVRQAPGKGLEWVAIISDGGYYTYYSDIIKGRFTISRDNAKNSLYLQMNSLKAEDTAVYYCARGFPLLRHGAMDYWGQGTLVTVSSAAGGGGSDIQMTQSPSSLSASVGDRVTITCRASQDIRNYLNWYQQKPGKAPKLLIYYTSRLESGVPSRFSGSGSGTDYTLTISSLQPEDFATYYCQQGNTLPWTFGQGTKVEIKAAAEQKLISEEDLNLGGGMRGSHHHHHH
Question: How did the “EC50, cytotoxic activity on 22Rv1 cells with T-LAKs” value [3] turn out when B8 was run?
Answer: 0.233 nM
